Here are results for 2 proteins from article doi:10.1101/2020.07.24.220665 (bioRxiv, 2020).

The data set deals with the molecule itself. Description: non-reducing PAGE.

Several values for one entry are separate records, joined by “and”; a condition that tells them apart may be missing. Equal entries are not always repeated.

B1: granulin-5 (GRN-5) (natural protein, UniProt P28799 364-417, looked up)
chain: VPCDNVSSCPSSDTCCQLTSGEWGCCPIPEAVCCSDHQHCCPQGYTCVAEGQCQ
For B1, the binding result was “binds”.

B2: granulin-3 (GRN-3) (natural protein, UniProt P28799 206-261, looked up)
chain: VMCPDARSRCPDGSTCCELPSGKWGCCPMPNATCCSDHLHCCPQDTVCDLIQSKCL
As for B2, the “stoichiometry N” value was 2 and 3.
